Assay results reported in patent publication US20180237519A1 (OHIO STATE INNOVATION FOUNDATION, published 2018).

Target: T1, CS-1 (human, UniProt Q9NQ25 23-335)
T1 sequence (looked up): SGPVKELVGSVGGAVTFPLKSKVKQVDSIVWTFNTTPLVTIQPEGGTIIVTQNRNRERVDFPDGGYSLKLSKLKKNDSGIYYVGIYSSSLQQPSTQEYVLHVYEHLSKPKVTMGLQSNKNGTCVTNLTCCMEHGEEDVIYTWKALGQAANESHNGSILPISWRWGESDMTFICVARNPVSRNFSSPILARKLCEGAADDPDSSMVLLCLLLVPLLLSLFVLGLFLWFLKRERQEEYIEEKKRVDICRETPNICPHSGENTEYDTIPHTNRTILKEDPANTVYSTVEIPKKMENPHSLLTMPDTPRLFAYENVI
Test: cell-based or functional assay

B1: anti-CS-1 tri-specific cytotoxic lymphocytes engager (TriCLE) (bispecific antibody)
chain: QVQLVESGGGLVKPGGSLRLSCAASGFTFSSYGMHWVRQAPGKGLEWVAFIRYDGSNKYYADSVKGRFTISRDNSKNTLYLQMNSLRAEDTAVYYCAKDRGLGDGTYFDYWGQGTTVTVSSGGGGSGGGGSGGGGSQSALTQPASVSGSPGQSITISCSGSSSNIGNNAVNWYQQLPGKAPKLLIYYDDLLPSGVSDRFSGSKSGTSAFLAISGLQSEDEADYYCAAWDDSLNGPVFGGGTKLTVLPSGQAGAAASESLFVSNHAYKLELKTGAGFTLPTSYHQQCYYVALDEAQVNSITFTFDTGSGSGTFRDPVGTYRYSASYILLKPSQGPKQQYWAVGTIVDQSAKCTISVRDGVSTSMSKQSQTMVIDGGGGSGGGGSGGGGSSVTVSTGQGWYDMARTAIMTSRACYYVASDESTPSSLQMYATSSSKDVTLTAKDKFKQNLRTESDSPHIMGIWELGQGPRQKVWNMWYTTFSYGSAKCSLKVSAGPRVLEAGPQQLQVQSHHHHHH
  EC50 of cytotoxicity of TriCLE-activated PBMCs against H929: 1.2 nM
  EC50 of cytotoxicity of TriCLE-activated PBMCs against MM1.s: 0.003 nM
  EC50 of cytotoxicity of TriCLE-activated PBMCs against RPMI-8226: 1.8 nM
